# ± gives the uncertainty stated by the source.
# Assay: self-splicing fitness, log relative to wild type (ln ratio); higher = more splicing; Tetrahymena group I intron in knt gene, E. coli kanamycin selection, DiMSum; sequences stand for … in CUCUCU…GGAGGGAAAAGUUAUCAGGCAUGCACCUGGUAGCUAGUCUUUAAACCAAUAGAUUGCAUCGGUUUAAAAGGCAAGACCGUCAAAUUGCGGGAAAGGGGUCAACAGCCGUUCAGUACCAAGUCUCAGGGGAAACUUUGAGAUGGCCUUGCAAAGGGUAUGGUAAUAAGCUGACGGACAUGGUCCUAACCACGCAGCCAAGUCCUAAGUCAACAGAUCUUCUGUUGAUAUGGAUGCAGUUCACAGACUAAAUGUCGGUCGGGGAAGAUGUAUUCUUCUCAUAAGAUAUAGUCGGACCUCUCCUUAAUGGGAGCUAGCGGAUGAAGUGAUGCAACACUGGAGCCGCUGGGAACUAAUUUGUAUGCGAAAGUAUAUUGAUUAGUUUUGGAGUACUCGUGGUCG
# How it was run: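 DiMSum derived fitness as the error-weighted combination of fold changes across replicates, kanamycin versus no kanamycin, normalised to wild type. E. coli BL21(DE3) held the library, which randomised all eight P1ex-region intron nucleotides within the knt kanamycin-resistance gene on pET-22b(+). Six replicate transformations grew overnight at 37°C or 30°C on LB agar with or without 25 μg/mL kanamycin, also containing 100 μg/mL carbenicillin, 50 μM IPTG and 0.2% rhamnose, and pooled colonies were amplicon-sequenced on an Illumina HiSeq 2500.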
Sequence,self-splicing fitness (ln) (30 °C),self-splicing fitness (ln) (37 °C)
AGAUAGCAAUAUUACGCACA,-0.827 ± 0.07,-0.123 ± 0.087
AGAUAGCAAUAUUACGCAUU,-2.76 ± 0.21,-1.02 ± 0.21
AGAUAGCAAUAUUACGCGUC,-2.53 ± 0.2,-0.587 ± 0.47
AGAUAGCAAUAUUACGGAGU,-3.25 ± 0.15,-2.33 ± 0.15
AGAUAGCAAUAUUACGGGCA,-1.12 ± 0.13,0.0415 ± 0.12
AGAUAGCAAUAUUACGGGGA,-3.46 ± 0.31,-3.05 ± 0.35
AGAUAGCAAUAUUACGGGUA,-1.35 ± 0.11,-1.8 ± 0.14
AGAUAGCAAUAUUACGGUGU,-2.01 ± 0.096,-1.15 ± 0.1
AGAUAGCAAUAUUACGUACC,-0.423 ± 0.13,0.0629 ± 0.14
AGAUAGCAAUAUUACGUACG,-1.38 ± 0.096,-0.00695 ± 0.11
AGAUAGCAAUAUUACGUAUU,-2.63 ± 0.14,-1.35 ± 0.12
AGAUAGCAAUAUUACGUCGU,-1.21 ± 0.082,-0.136 ± 0.099
AGAUAGCAAUAUUACGUGCG,-1.19 ± 0.06,-0.409 ± 0.081
AGAUAGCAAUAUUACGUUCC,-1.62 ± 0.2,-1.48 ± 0.23
AGAUAGCAAUAUUACGUUCG,-0.335 ± 0.1,0.123 ± 0.14
AGAUAGCAAUAUUACGUUCU,-2.38 ± 0.14,-2.02 ± 0.17
AGAUAGCAAUAUUACGUUGA,-3.51 ± 0.24,-1.5 ± 0.14
AGCAAGCAAUAUUACGAACA,-0.765 ± 0.099,-0.407 ± 0.12
AGCAAGCAAUAUUACGAAUC,-4.48 ± 0.42,-1.81 ± 0.2
AGCAAGCAAUAUUACGACCC,-0.234 ± 0.18,-0.196 ± 0.25
AGCAAGCAAUAUUACGACGA,-0.884 ± 0.14,-0.398 ± 0.16
AGCAAGCAAUAUUACGAGCG,0.283 ± 0.061,-0.223 ± 0.076
AGCAAGCAAUAUUACGAUAU,-2.16 ± 0.13,-1.51 ± 0.11
AGCAAGCAAUAUUACGAUUC,-2.18 ± 0.13,-1.04 ± 0.15

Sequence,self-splicing fitness (ln) (30 °C),self-splicing fitness (ln) (37 °C)
AGCAAGCAAUAUUACGCAAC,-3.99 ± 0.31,
AGCAAGCAAUAUUACGCACU,-1.89 ± 0.11,-1.37 ± 0.14
AGCAAGCAAUAUUACGCCGA,-0.81 ± 0.15,-0.63 ± 0.17
AGCAAGCAAUAUUACGCCGC,-2.89 ± 0.45,-2.68 ± 0.45
AGCAAGCAAUAUUACGCCUA,-0.835 ± 0.08,-0.537 ± 0.084
AGCAAGCAAUAUUACGCGCG,-1.54 ± 0.072,-0.145 ± 0.09
AGCAAGCAAUAUUACGCGGA,-2.04 ± 0.13,-0.823 ± 0.099
AGCAAGCAAUAUUACGCUAU,-2.4 ± 0.1,-2.25 ± 0.15
AGCAAGCAAUAUUACGCUCG,-2.82 ± 0.27,
AGCAAGCAAUAUUACGGAAA,-3.46 ± 0.18,-1.03 ± 0.11
AGCAAGCAAUAUUACGGACU,-0.137 ± 0.084,-0.455 ± 0.094
AGCAAGCAAUAUUACGGAUU,-1.94 ± 0.07,-0.407 ± 0.084
AGCAAGCAAUAUUACGGCUG,-0.939 ± 0.077,-1.4 ± 0.13
AGCAAGCAAUAUUACGGUAG,-3.4 ± 0.14,-2.75 ± 0.15
AGCAAGCAAUAUUACGUCGC,,-0.083 ± 0.23
AGCAAGCAAUAUUACGUGAG,-2.58 ± 0.087,-1.44 ± 0.089
AGCAAGCAAUAUUACGUGAU,-2.1 ± 0.072,-1.32 ± 0.08
AGCAAGCAAUAUUACGUUUC,-4.44 ± 0.25,-2.09 ± 0.15
AGCCAGCAAUAUUACGAAUU,-3.14 ± 0.15,-1.44 ± 0.11
AGCCAGCAAUAUUACGAGUU,-1.84 ± 0.086,-0.293 ± 0.081
AGCCAGCAAUAUUACGCACC,-0.939 ± 0.18,-1.12 ± 0.18
AGCCAGCAAUAUUACGCCAU,-1.5 ± 0.2,-1.89 ± 0.32
AGCCAGCAAUAUUACGCGAG,-1.65 ± 0.13,-1.29 ± 0.16
AGCCAGCAAUAUUACGCGUC,-2.8 ± 0.13,-1.23 ± 0.12
